B1: MyD88 death domain (1-117 a.a) fused to GFP at the N-terminus (domain or fragment, human, UniProt Q99836 1-117, looked up)
chain: MAAGGPGAGSAAPVSSTSSLPLAALNMRVRRRLSLFLNVRTQVAADWTALAEEMDFEYLEIRQLETQADPTGRLLDAWQGRPGASVGRLLELLTKLGRDDVLLELGPSIEEDCQKYI
B2: MyD88 TIR domain (159-296 a.a) fused to GFP at the N-terminus (domain or fragment, human, UniProt Q99836 159-296, looked up)
chain: ERFDAFICYCPSDIQFVQEMIRQLEQTNYRLKLCVSDRDVLPGTCVWSIASELIEKRCRRMVVVVSDDYLQSKECDFQTKFALSLSPGAHQKRLIPIKYKAMKKEFPSILRFITVCDYTNPCTKSWFWTRLAKALSLP

Key:
[1] = target: the molecule itself; test: photon counting histogram
[2] = target: the molecule itself; test: single-molecule fluorescence brightness analysis

Protein | stoichiometry N [1] | stoichiometry N [2]
B1 | 8 | 8 to 10 GFP molecules
B2 | 3 | ~3 GFP fluorophores

— article doi:10.1101/351726 (bioRxiv, 2018)
